According to US20170327535A1:

Target: aTNFa-Fab (Fab fragment of Infliximab, Remicade)
Assay: dynamic binding capacity on a 1 mL-gel column, 1 mg/mL aTNFa-Fab at […], 55% breakthrough

55% DBC: 48.6 mg/mL/gel
B1: LB5t-Wild.4d (four connected B5 domains of PpL312), immobilized on agarose carrier (protein)
chain: KEETPETPETDSEEQVTIKENIYFEDGTVQTATFKGTFAEATAEAYRYADLLSKEHGKYTADLEDGGYTINIRFAGKEKTPEEPKEQVTIKENIYFEDGTVQTATFKGTFAEATAEAYRYADLLSKEHGKYTADLEDGGYTINIRFAGKEKTPEEPKEQVTIKENIYFEDGTVQTATFKGTFAEATAEAYRYADLLSKEHGKYTADLEDGGYTINIRFAGKEKTPEEPKEQVTIKENIYFEDGTVQTATFKGTFAEATAEAYRYADLLSKEHGKYTADLEDGGYTINIRFAGKKVDEKPEEC
modifications: coupled to maleimide-activated (EMCH) NHS Activated Sepharose 4 Fast Flow through a reactive amino acid residue
